This note sets out measurements from PMC5389526.

The series addresses T1, Cas1-Cas2 complex (native Cas1 + Cas2-His6) (Escherichia coli, UniProt Q46896;P45956 1-305;1-94).
T1 sequence 1: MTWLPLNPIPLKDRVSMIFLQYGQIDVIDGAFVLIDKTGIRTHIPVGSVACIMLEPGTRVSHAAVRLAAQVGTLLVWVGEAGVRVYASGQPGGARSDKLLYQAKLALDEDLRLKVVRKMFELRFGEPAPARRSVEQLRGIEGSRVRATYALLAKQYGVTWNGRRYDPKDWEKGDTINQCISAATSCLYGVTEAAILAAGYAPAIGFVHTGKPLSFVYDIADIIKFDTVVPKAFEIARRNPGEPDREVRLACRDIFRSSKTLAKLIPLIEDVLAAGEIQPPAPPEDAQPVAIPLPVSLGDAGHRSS
T1 sequence 2: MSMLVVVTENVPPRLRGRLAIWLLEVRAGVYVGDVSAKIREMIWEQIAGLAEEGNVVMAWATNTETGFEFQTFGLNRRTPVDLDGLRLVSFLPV
Put plainly: EMSA. On the technique in general: A gel shift assay detects complexes by their altered migration in electrophoresis.

Where a chain is given by its changes, count along the chain named.

B1: S1 oligonucleotide (ssDNA)
DNA: ATTTCAGCTACTCCGATGGCCCATATGCGGATT
Consider B1, for which the binding result was “no binding”.

B2: S2 oligonucleotide (ssDNA)
DNA: B1 DNA with T33C
Turning to B2, the binding result is given as “no binding”.
